Data as given in PMC4072508, “Genome-Wide Prediction and Validation of Peptides That Bind Human Prosurvival Bcl-2 Proteins” (PLoS Computational Biology, 2014).

T1: Mcl-1, Q07820
T1 chain: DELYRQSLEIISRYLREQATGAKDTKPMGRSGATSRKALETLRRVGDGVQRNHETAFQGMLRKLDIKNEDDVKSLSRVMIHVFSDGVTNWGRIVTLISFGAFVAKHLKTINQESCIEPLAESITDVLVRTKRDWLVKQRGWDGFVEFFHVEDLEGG

T2: Bfl-1, Q16548
T2 chain: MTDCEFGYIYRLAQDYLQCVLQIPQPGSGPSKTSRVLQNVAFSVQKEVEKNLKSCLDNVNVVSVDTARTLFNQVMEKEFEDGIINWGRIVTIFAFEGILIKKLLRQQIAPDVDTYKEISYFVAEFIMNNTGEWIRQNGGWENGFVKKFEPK


target: Bcl-xL, Q07817; assay: peptide SPOT array, c-Myc-tagged receptor at 1 uM or 100 nM, anti-c-Myc-Cy3
Sequence (Q07817 1-209): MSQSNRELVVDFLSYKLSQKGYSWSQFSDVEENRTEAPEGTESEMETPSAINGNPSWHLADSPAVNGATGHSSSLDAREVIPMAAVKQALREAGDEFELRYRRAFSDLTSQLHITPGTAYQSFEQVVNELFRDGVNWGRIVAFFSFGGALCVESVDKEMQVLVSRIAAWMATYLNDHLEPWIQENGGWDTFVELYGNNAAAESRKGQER

SPOT signal as a fraction of Bim BH3's signal on the same receptor and array	Binder
0.08	VLAPVQLGKWLVLFLDEINLPDMDKY [DYNC1H1]
0.07	ELLYGIWSNCLGLISDSFHMFFDSTA
0.07	THFLDEEVKLDKKMGDHLTNLHRLGG [FTL]
1.3	PYLSKHRADRMRRLGDFLNQESFDLA [SMPD2]
0.53	LWAAQRYGREDRRMSDEFVDSFKKGL [BAD]
0.07	FGEYSGISENDILVGDDFWIPETSFI [ROS1]
0.08	EAVTDGLKRALRSFLNALGNCILDKD [RAD52]
0.07	SQGKHGFTMAMNAFLDMTNEEFRQMM [CTSL2]
0.07	MPYMEAVIHEDQRFGDVIPMSLARRV [CYP2A6]
0.09	LLDFFMVSILDSKLGDLLHKLQFVLT [PCNXL2]
0.2	GGRVKLVHSADIQLGDSLSHKGNEFW
0.06	ELLYGIWSNCDGLISDSFHMFFDSTA
0.22	MRSQLGKATALAIMGDKLWWADQVSE
1.07	WVKSIRICTPMGKLGDSCHPLTRKVP [PROK2]
0.05	LDFTFVCPTEIIAFLDRLEEFRSINT [PRDX4]
0.04	NNNMDVESRTMATMLDTLASRGLLDA [SEC16A]

SPOT signal as a fraction of Bim BH3's signal on the same receptor and array	Binder
0.86	ISSLDLLPYGLRYILKVLKNSIHEKF [IQGAP2]
0.28	GGRVKLVHSALIQLLDSLSHKGNEFW
0.15	PKKKMTLSEIYQWILDNFPYYREAGS [FOXJ3]
0.1	PSECETLGSNLGHNLDLLNENNILAK [ZFP90]
0.07	KKLKNLEGNEDQRHADEFLLDLGHHE
0.17	RMIVDCVSSHDKKTGDGAKTFIIFLC [BBS10]
0.23	FTCKNKFCKPLFWVLDSVNDCGDNSD [ST14]
0.06	MSLFLRVVFSFTMFLDLFEEEYSTVS [USP40]
2.54	TAAAAYRGAHDRGRGRTVYNTFRAAA [XXXX]
0.08	KKLKNLEGNELQRHLDEFLLDLGHHE
0.17	MRSQLGKATADAIMGDKLWWADQVSE
0.06	ELDEDDLEAEDDALGDELLADEDSSY
0.02	SSTMGQVGRQDAIIGDDINRRYDSEF [BAK1]
0.41	YFKLFRASGDMRTNGDNYLYEIQLSS [IGF2R]
0.07	LNLLMISVAFLRVILDQLEKLCDSLL [SLC38A8]
0.06	ELDEDDLEAELDALLDELLADEDSSY

Target: T1, Mcl-1, Q07820
Assay: as above

SPOT signal as a fraction of Bim BH3's signal on the same receptor and array	Binder
0.08	VLAPVQLGKWLVLFLDEINLPDMDKY [DYNC1H1]
0.06	ELLYGIWSNCLGLISDSFHMFFDSTA
0.05	THFLDEEVKLDKKMGDHLTNLHRLGG [FTL]
0.71	PYLSKHRADRMRRLGDFLNQESFDLA [SMPD2]
0.51	LWAAQRYGREDRRMSDEFVDSFKKGL [BAD]
0.04	FGEYSGISENDILVGDDFWIPETSFI [ROS1]
0.08	EAVTDGLKRALRSFLNALGNCILDKD [RAD52]
0.11	SQGKHGFTMAMNAFLDMTNEEFRQMM [CTSL2]
0.07	MPYMEAVIHEDQRFGDVIPMSLARRV [CYP2A6]
0.06	LLDFFMVSILDSKLGDLLHKLQFVLT [PCNXL2]
0.23	GGRVKLVHSADIQLGDSLSHKGNEFW
0.05	ELLYGIWSNCDGLISDSFHMFFDSTA
0.28	MRSQLGKATALAIMGDKLWWADQVSE
0.81	WVKSIRICTPMGKLGDSCHPLTRKVP [PROK2]
0.05	LDFTFVCPTEIIAFLDRLEEFRSINT [PRDX4]
0.03	NNNMDVESRTMATMLDTLASRGLLDA [SEC16A]

SPOT signal as a fraction of Bim BH3's signal on the same receptor and array	Binder
0.66	ISSLDLLPYGLRYILKVLKNSIHEKF [IQGAP2]
0.23	GGRVKLVHSALIQLLDSLSHKGNEFW
0.16	PKKKMTLSEIYQWILDNFPYYREAGS [FOXJ3]
0.04	PSECETLGSNLGHNLDLLNENNILAK [ZFP90]
0.04	KKLKNLEGNEDQRHADEFLLDLGHHE
0.08	RMIVDCVSSHDKKTGDGAKTFIIFLC [BBS10]
0.27	FTCKNKFCKPLFWVLDSVNDCGDNSD [ST14]
0.06	MSLFLRVVFSFTMFLDLFEEEYSTVS [USP40]
1.43	TAAAAYRGAHDRGRGRTVYNTFRAAA [XXXX]
0.05	KKLKNLEGNELQRHLDEFLLDLGHHE
0.16	MRSQLGKATADAIMGDKLWWADQVSE
0.03	ELDEDDLEAEDDALGDELLADEDSSY
0.01	SSTMGQVGRQDAIIGDDINRRYDSEF [BAK1]
0.43	YFKLFRASGDMRTNGDNYLYEIQLSS [IGF2R]
0.04	LNLLMISVAFLRVILDQLEKLCDSLL [SLC38A8]
0.03	ELDEDDLEAELDALLDELLADEDSSY

Target: T2, Bfl-1, Q16548
Assay: as above

SPOT signal as a fraction of Bim BH3's signal on the same receptor and array	Binder
0.07	VLAPVQLGKWLVLFLDEINLPDMDKY [DYNC1H1]
0.06	ELLYGIWSNCLGLISDSFHMFFDSTA
0.03	THFLDEEVKLDKKMGDHLTNLHRLGG [FTL]
0.69	PYLSKHRADRMRRLGDFLNQESFDLA [SMPD2]
0.3	LWAAQRYGREDRRMSDEFVDSFKKGL [BAD]
0.04	FGEYSGISENDILVGDDFWIPETSFI [ROS1]
0.04	EAVTDGLKRALRSFLNALGNCILDKD [RAD52]
0.06	SQGKHGFTMAMNAFLDMTNEEFRQMM [CTSL2]
0.04	MPYMEAVIHEDQRFGDVIPMSLARRV [CYP2A6]
0.04	LLDFFMVSILDSKLGDLLHKLQFVLT [PCNXL2]
0.24	GGRVKLVHSADIQLGDSLSHKGNEFW
0.05	ELLYGIWSNCDGLISDSFHMFFDSTA
0.14	MRSQLGKATALAIMGDKLWWADQVSE
0.56	WVKSIRICTPMGKLGDSCHPLTRKVP [PROK2]
0.04	LDFTFVCPTEIIAFLDRLEEFRSINT [PRDX4]
0.05	NNNMDVESRTMATMLDTLASRGLLDA [SEC16A]

SPOT signal as a fraction of Bim BH3's signal on the same receptor and array	Binder
0.6	ISSLDLLPYGLRYILKVLKNSIHEKF [IQGAP2]
0.23	GGRVKLVHSALIQLLDSLSHKGNEFW
0.1	PKKKMTLSEIYQWILDNFPYYREAGS [FOXJ3]
0.04	PSECETLGSNLGHNLDLLNENNILAK [ZFP90]
0.04	KKLKNLEGNEDQRHADEFLLDLGHHE
0.09	RMIVDCVSSHDKKTGDGAKTFIIFLC [BBS10]
0.12	FTCKNKFCKPLFWVLDSVNDCGDNSD [ST14]
0.04	MSLFLRVVFSFTMFLDLFEEEYSTVS [USP40]
1.4	TAAAAYRGAHDRGRGRTVYNTFRAAA [XXXX]
0.04	KKLKNLEGNELQRHLDEFLLDLGHHE
0.12	MRSQLGKATADAIMGDKLWWADQVSE
0.03	ELDEDDLEAEDDALGDELLADEDSSY
0.01	SSTMGQVGRQDAIIGDDINRRYDSEF [BAK1]
0.47	YFKLFRASGDMRTNGDNYLYEIQLSS [IGF2R]
0.05	LNLLMISVAFLRVILDQLEKLCDSLL [SLC38A8]
0.03	ELDEDDLEAELDALLDELLADEDSSY
